Experimental data taken from article PMC9019507, “OAT10/SLC22A13 Acts as a Renal Urate Re-Absorber: Clinico-Genetic and Functional Analyses With Pharmacological Impacts” (Frontiers in Pharmacology, 2022).

System: T1, O=c1[nH]c(=O)c2[nH]c(=O)[nH]c2[nH]1
T1 construct: full-length human OAT10 wild-type, EGFP-fused (pEGFP-N1)
Test: cells, lysate or membranes
Type: cell-based, Homo sapiens
Settings: Cl^-

Sequence of OAT10/SLC22A13 (Homo sapiens) (chain, as listed by the source): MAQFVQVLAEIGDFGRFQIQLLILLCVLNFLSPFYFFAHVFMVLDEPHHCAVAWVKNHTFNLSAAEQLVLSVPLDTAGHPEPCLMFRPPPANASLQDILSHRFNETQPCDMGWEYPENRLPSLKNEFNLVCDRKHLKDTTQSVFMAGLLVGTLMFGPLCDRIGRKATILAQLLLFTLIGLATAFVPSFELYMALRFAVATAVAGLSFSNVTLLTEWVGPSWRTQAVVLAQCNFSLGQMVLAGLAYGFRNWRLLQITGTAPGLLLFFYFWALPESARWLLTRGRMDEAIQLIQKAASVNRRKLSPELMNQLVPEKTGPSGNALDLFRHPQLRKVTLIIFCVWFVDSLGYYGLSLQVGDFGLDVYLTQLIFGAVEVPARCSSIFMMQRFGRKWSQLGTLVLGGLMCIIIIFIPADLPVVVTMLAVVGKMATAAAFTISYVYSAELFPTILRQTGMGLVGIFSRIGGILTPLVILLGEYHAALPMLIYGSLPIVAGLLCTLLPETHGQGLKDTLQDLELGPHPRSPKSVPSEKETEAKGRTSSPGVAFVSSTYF

## OAT10/SLC22A13 (Homo sapiens)
  Km: 558 µM
